Data on 1 protein can be found in article PMC11153552, “Clock gene homologs lin-42 and kin-20 regulate circadian rhythms in C. elegans” (Scientific Reports, 2024).

The data set deals with the molecule itself. The data set is described as follows: crystal structure; hanging-drop vapor diffusion at 22 °C; LIN-42 41-315 at 4 mg/mL; reservoir 150 mM lithium sulfate, 1.5 M sodium potassium tartrate; molecular replacement with mouse PER2 PAS-B (PDB 3GDI).

B1: LIN-42 N-terminus residues 41-315 (domain or fragment, C. elegans)
chain: GAMDPEFNTWSSSSVEFLDDADDNRLLFTCTFTLPHGTVLSSATYADGFHEQYLTIGDNFLARLEPKGQSFILSAAAASVKQRIFARVTMPDGALRACELLCEFETDRAKITVLALRSAFSLQASHVSSNFHVFTFITKHSSTCALTHIDYASIPYLGLLPTDLIGKSLLAFVYSPDVHVVRQAHIDLHNSRGKIVKSIADLRLVAHNGSILRCQTEWSAYVNPWTRKMELVVARHRICSLPIGDSDVISSPPPGIQSNTLPPVMAKTFEDELRTIMNKPVP
notes: remnant left on the N-terminus of LIN-42 after TEV cleavage of the HisGβ1 tag; LIN-42 (PERIOD homolog), C. elegans, residues 41-315; Crystallised construct was 41-315; Density was poor for the putative N-terminal PAS domain (residues 41-146), so only the PAS-B dimer was modelled; also called protease-resistant core of the LIN-42 N-terminus; LIN-42 PAS-B dimer; source: E. coli Rosetta2 (DE3), …
As to B1, the binding result was “binds”.
